This is an account of results in paper PMC5097169 (2016).

Assay [1] addresses Flag RbAp46 (Xenopus, recombinant) (Xenopus laevis (African clawed frog), UniProt Q8AVH1). Nature of the assay: GST-CENP-A tail resin pull-down (bridged), Coomassie; inferred from RbAp46-dependent recovery of Hat1 on the immobilized GST-CENP-A N-terminal tail (1-50); no direct two-protein test.
The target of assay [2] is T1, GST fusion to Xenopus laevis CENP-A amino terminus (amino acids 1–50) (Xenopus laevis (African clawed frog), UniProt Q569M3).
T1 chain: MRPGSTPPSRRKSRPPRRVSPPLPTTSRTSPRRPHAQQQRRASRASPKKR
Nature of the assay: GST-tail resin pull-down, Coomassie.

B1: Flag Hat1 (Xenopus, recombinant) (protein)
chain: MEKKLAEYKCNTNEAIQLKLVRFPEDIEDESMTFNPEYSHQIFGDEEVAFGYKGLKILLYYSAGNLSTMFRVQYSSKVNDKFDLVQPDDVENKIHELIPAGFCSGTDDFITLLEKEVNFKPFGTIVHTYTVHNEDAGEDISYQIYKADMTSPGFREYHERLQTFMMWFIETASYIDVDDEKWDYFLVFEKYNKDGATLFATVGYMTVYNYYVYPDKTRPRVSQMLVLPPFQGEGHGAQLMETVHRYYVSAPNILDITAEDPSENFVRLRDFVLVKLCQNLPCFSPEKLLCGFSKEMVTEAQEKLKINKKHARRVYEILRLRATDMSDPEKSKAYRLDVKKRLVGPYKKNQREMAKMQQCLRPEELTNQMNQIDLNTQHEQLEESYQQLVEEYRRIVERLAQA
For B1, the binding result in assay [1] is “binds”.

B2: Flag RbAp46 (Xenopus, recombinant) (protein)
chain: MANKEMFEDTVEERVINEEYKIWKKNTPFLYDLVMTHALEWPSLTVQWLPDVTRPEGKDYALHWLVLGTHTSDEQNHLVVARVQVPNDDAQFDASHYDSEKGEFGGFGSVSGKIETEIKINHEGEVNRARYMPQNPCIIATKTPSADVLVFDYTKHPSKPDPSGECSPDLRLRGHQKEGYGLSWNSNLSGHLLSASDDHTVCLWDISAGPKEGKVVDAKAVFTGHSAVVEDVAWHLLHESLFGSVADDQKLMIWDTRSNTTSKPSHSVDAHTAEVNCLSFNPYSEFILATGSADKTVALWDLRNLKLKLHSFESHKDEIFQVHWSPHNETILASSGTDRRLNVWDLSKIGEEQSAEDAEDGPPELLFIHGGHTAKISDFSWNPNEPWVICSVSEDNIMQIWQMAENIYNDEEPDIPASELEAQGS
With B2, the binding result in assay [2] is reported as “binds”.
